Article PMC6265464
Values belong to the molecule of their own block, whether it stands above or below them.

Legend:
[1] = biological target: full-length 3× Flag-tagged R192F hFEN1 (human) (UniProt P39748); experiment: co-IP
[2] = biological target: hFEN1 D181A/R192F (1-333) (Homo sapiens, UniProt P39748 1-333, D181A;R192F); experiment: X-ray crystallography
Chain of hFEN1 D181A/R192F (1-333) (P39748 1-333 D181A/R192F): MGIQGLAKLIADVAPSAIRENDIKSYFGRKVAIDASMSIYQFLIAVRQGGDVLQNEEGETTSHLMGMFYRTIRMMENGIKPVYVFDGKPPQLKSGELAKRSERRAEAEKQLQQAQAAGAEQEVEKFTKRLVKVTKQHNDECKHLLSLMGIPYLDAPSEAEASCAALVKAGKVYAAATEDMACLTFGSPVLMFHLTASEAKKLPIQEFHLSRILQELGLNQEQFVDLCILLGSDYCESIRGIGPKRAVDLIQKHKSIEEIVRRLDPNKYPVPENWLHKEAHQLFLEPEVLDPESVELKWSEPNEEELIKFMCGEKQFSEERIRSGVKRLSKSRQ

Chain of full-length 3× Flag-tagged R192F hFEN1 (human) (P39748 whole entry R192F): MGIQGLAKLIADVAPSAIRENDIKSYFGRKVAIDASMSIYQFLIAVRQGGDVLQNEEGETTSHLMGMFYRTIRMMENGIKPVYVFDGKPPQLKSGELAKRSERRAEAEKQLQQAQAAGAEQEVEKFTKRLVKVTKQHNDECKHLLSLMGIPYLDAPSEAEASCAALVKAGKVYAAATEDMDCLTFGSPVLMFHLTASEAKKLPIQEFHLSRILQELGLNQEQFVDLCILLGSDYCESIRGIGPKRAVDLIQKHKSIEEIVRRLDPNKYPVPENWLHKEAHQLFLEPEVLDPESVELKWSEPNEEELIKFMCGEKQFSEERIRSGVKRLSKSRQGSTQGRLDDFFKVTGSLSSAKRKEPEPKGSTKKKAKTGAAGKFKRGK

percent lower interaction than with wild-type hFEN1 [1]: 40%
Molecule: CDK2 (from UniProt P24941 1-298) (enzyme)

percent lower interaction than with wild-type hFEN1 [1]: 70%
Molecule: Cyclin E (from UniProt P24864 1-410) (natural protein)

B1: double-flap DNA (D181A/R192F crystal) (dsDNA)
DNA 1: CCTCTGCCTCAAGACGGG
DNA 2: GCCCGTCC
DNA 3: ACTTTGAGGCAGAG
binding result [2]: binds
